Here are results for 2 substances from article PMC8341435.

The target in assay [1] is HIV-1 CAP256 SU gp140 NFL, mammalian cell-produced (HEK293) (HIV-1 (CAP256 SU virus)). The experiment in a line: SEC.
For assay [2] the target is unchanged. The experiment in a line: native gel or EMSA; BN-PAGE of the pooled trimer fractions on 4-12% NativePAGE Bis-Tris gels, Coomassie-stained. A general note: Mobility shift assays separate free from complexed probe on a gel.
Assay [3] deals with HIV-1 CAP256 SU gp140 NFL, plant-produced (Nicotiana benthamiana) (HIV-1 (CAP256 SU virus)). The experiment in a line: SEC. On the technique in general: In gel filtration, larger molecules generally elute earlier.

As for “HIV-1 CAP256 SU gp140 NFL, mammalian cell-produced (HEK293) (domain or fragment)”, the stoichiometry N in assay [1] and in assay [2] was 3 throughout. As to “HIV-1 CAP256 SU gp140 NFL, plant-produced (Nicotiana benthamiana) (domain or fragment)”, in assay [3], the stoichiometry N (commonly a count of units in the complex or per binding partner) stood at 3.
